Data as given in patent US20130225503A1, “TEX14 PEPTIDES AS NOVEL ANTITUMOR AGENTS” (Baylor Licnensing Group, priority 2009, published 2013).
“Also recorded” adds a separate entry of the source.

How the values were obtained:
Assay type in all cases: cell-based
[1] = biological target: T1, hinge region of human CEP55 (Homo sapiens, UniProt Q53EZ4); test: Modified mammalian two-hybrid assay in HEK293T cells, TEX14 fragment binding to CEP55; settings: transfected HEK293T cells; FIG. 5C, 5E, 5F, FIG. 7
T1 construct: expressed in transfected cells; host or cells: HEK293T
T1 sequence (Q53EZ4 157-236 limits assumed): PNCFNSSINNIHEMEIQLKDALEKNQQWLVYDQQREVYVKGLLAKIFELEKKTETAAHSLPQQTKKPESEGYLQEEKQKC
Description: (§1) A modified form of the CheckMate/Flexi vector mammalian two-hybrid system (Promega) was used to study the interactions of proteins in mammalian cells. A pGL4Cherry (mCherry/GAL4UAS/Hygro) vector was engineered from the pGL4.31 (luc2P/GAL4UAS/Hygro) vector by replacing the Luc2P firefly luciferase reporter sequence with the mCherry sequence. The pACT vector expresses a protein of interest, “X,” fused to a transcriptional activation domain (VP16-AD) and the pBIND vector expresses the other protein of interest, “Y,” fused to a DNA-binding domain (GAL4-BD) and Renilla luciferase by separate promoters. […]
(§2) Sequences encoding the truncated TEX14, CEP55, ALIX, or TSG101 fragments were cloned into the multiple cloning regions of the pACT and pBIND vectors. Some exemplary constructs used are summarized in FIGS. 6A and B. pACT (protein X), pBIND (protein Y), and pGL4Cherry (mCherry/GAL4UAS/Hygro) were transiently cotransfected into HEK293T cells using Fugene 6/HD transfection reagent, and the cells were examined 44 h later for red fluorescence by using an Axiovert 40 CFL microscope (Carl Zeiss). […] The cells were lysed by using Renilla luciferase assay reagent (Promega), and red fluorescence and Renilla luciferase were measured by using a Polar Star Omega microplate reader (BMG LabTech). […]

ALIX-CEP interaction = biological target: T2, ALIX-CEP interaction (Homo sapiens, UniProt Q53EZ4); test: Competition assay using the mammalian two-hybrid system, ALIX-CEP55 interaction; settings: pcDNA3 overexpression in HEK293T cells; FIG. 6A, FIG. 7 left
T2 construct: expressed in transfected cells; host or cells: HEK293T
T2 sequence (Q53EZ4 157-236 limits assumed): T1 sequence (Q53EZ4 157-236 limits assumed)
Description: as §1, §2

TSG-CEP interaction = biological target: T3, TSG-CEP interaction (Homo sapiens, UniProt Q53EZ4); test: Competition assay using the mammalian two-hybrid system, TSG101-CEP55 interaction; settings: pcDNA3 overexpression in HEK293T cells; FIG. 6B, FIG. 7 center
T3 construct: expressed in transfected cells; host or cells: HEK293T
T3 sequence (Q53EZ4 157-236 limits assumed): T1 sequence (Q53EZ4 157-236 limits assumed)
Description: as §1, §2

[2] = test system: full-length ALIX localization to the midbody; test: Cotransfection with YFP full-length ALIX into HeLa cells, ALIX midbody localization and interconnected cells
Description: The mouse TEX14 open reading frame (ORF) sequence was ligated into the BamHI and SalI sites of the pCMV-tag2 vector (Stratagene), which contains an N-terminal FLAG tag sequence. The mouse CEP55 ORF was cloned from testis cDNA and subcloned into the EcoRI and SalI sites of the pcDNA3 (Invitrogen) vector containing an N-terminal MYC tag sequence. The truncated and mutant TEX14 (TX, AAAX3A) and the full-length ALIX sequences were ligated into the BamHI and NotI or the NotI and XbaI sites, respectively, of the pcDNA3 vectors, while mCherry or YFP sequences were subcloned into the KpnI and BamHI sites. Purified plasmid DNA was obtained by using a QIAprep spin miniprep kit (Qiagen), and all constructs were sequenced for integrity.
HEK293T or HeLa cells were maintained in Dulbecco's modified Eagle medium (Invitrogen) supplemented with 10% fetal calf serum (SAFC Biosciences), 1% L-glutamine (Invitrogen), and penicillinstreptomycin (Invitrogen) and grown on poly-D-lysine (Sigma)-coated coverslips in culture plates at 37 C° in a humidified 5% CO2 atmosphere. For immunoprecipitation and immunoblot experiments, cells were seeded at 50 to 80% confluence in […] (Corning) and transiently transfected using Fugene 6/HD transfection reagent (Roche) according to the manufacturer's instructions. […]

## TX: GPPX3Y region of human TEX14, the 60 amino acids from 754 to 813 (LRNIEQILDEVEMKQKEQEERMSLWATSREFTNAYKLPLAVGPPSLNYIPPVLQLSGGQK; UniProt Q8IWB6 754-813, looked up, fragment)
[1]
  binding to CEP55 hinge region (mCherry/Renilla luciferase or mCherry/YFP ratio): strongly binds; also recorded: typically stronger than the ALIX-CEP or TSG-CEP interactions
ALIX-CEP interaction
  effect of overexpression on ALIX-CEP interaction: suppressed
TSG-CEP interaction
  effect of overexpression on TSG-CEP interaction: suppressed
[2]; HeLa cells cotransfected with pcDNA-mCherry-truncated TEX14 and pcDNA-YFP full-length ALIX
  full-length ALIX localization to the midbody: inhibits full-length ALIX localization to the midbody
[2]; HeLa cells, FIG. 6G left
  interconnecting cells (intercellular bridges) in transfected cells: several interconnecting cells were visualized
